From PMC2793518, “Fiber Mediated Receptor Masking in Non-Infected Bystander Cells Restricts Adenovirus Cell Killing Effect but Promotes Adenovirus Host Co-Existence” (PLoS ONE, 2009) come the findings set out here.

This experiment deals with T1, CAR on A549 cells (human (endogenous in A549), UniProt P78310 20-365).
T1 sequence: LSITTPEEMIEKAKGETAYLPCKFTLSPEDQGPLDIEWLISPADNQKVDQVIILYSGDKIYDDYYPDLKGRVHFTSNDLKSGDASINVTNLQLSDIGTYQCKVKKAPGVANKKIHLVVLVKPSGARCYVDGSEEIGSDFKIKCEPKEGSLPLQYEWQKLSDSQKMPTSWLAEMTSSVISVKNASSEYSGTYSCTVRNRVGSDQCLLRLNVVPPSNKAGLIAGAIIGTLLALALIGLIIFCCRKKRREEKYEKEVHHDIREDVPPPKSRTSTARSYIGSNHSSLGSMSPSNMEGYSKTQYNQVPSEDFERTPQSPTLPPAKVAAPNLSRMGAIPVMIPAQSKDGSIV
The experiment in a line: cell-based or functional assay.

B1: Ad5 fiber (free trimeric fiber molecules released from Ad5-CRAD or WT Ad5 infected cells) (natural protein)
chain: MKRARPSEDTFNPVYPYDTETGPPTVPFLTPPFVSPNGFQESPPGVLSLRLSEPLVTSNGMLALKMGNGLSLDEAGNLTSQNVTTVSPPLKKTKSNINLEISAPLTVTSEALTVAAAAPLMVAGNTLTMQSQAPLTVHDSKLSIATQGPLTVSEGKLALQTSGPLTTTDSSTLTITASPPLTTATGSLGIDLKEPIYTQNGKLGLKYGAPLHVTDDLNTLTVATGPGVTINNTSLQTKVTGALGFDSQGNMQLNVAGGLRIDSQNRRLILDVSYPFDAQNQLNLRLGQGPLFINSAHNLDINYNKGLYLFTASNNSKKLEVNLSTAKGLMFDATAIAINAGDGLEFGSPNAPNTNPLKTKIGHGLEFDSNKAMVPKLGTGLSFDSTGAITVGNKNNDKLTLWTTPAPSPNCRLNAEKDAKLTLVLTKCGSQILATVSVLAVKGSLAPISGTVQSAHLIIRFDENGVLLNNSFLDPEYWNFRNGDLTEGTAYTNAVGFMPNLSAYPKSHGKTAKSNIVSQVYLNGDKTKPVTLTITLNGTQETGDTTPSAYSMSFSWDWSGHNYINEIFATSSYTFSYIAQE
With B1, the “percent GFP+ cells 24 hr after super-infection with Ad5-PGK-GFP (MOI 10) of A549 cultures infected 6 days before with Ad5-CRAD (MOI 1.0), relative to cultures without prior Ad5-CRAD infection” value was 60 % of control.
